From patent US20200231688A1 (published 2020)

T1: soluble recombinant human IL-6 receptor (SR344) (human, UniProt P08887 20-344)
T1 construct: range 1-344; also called soluble IL-6 receptor; soluble human IL-6 receptor
T1 sequence (looked up): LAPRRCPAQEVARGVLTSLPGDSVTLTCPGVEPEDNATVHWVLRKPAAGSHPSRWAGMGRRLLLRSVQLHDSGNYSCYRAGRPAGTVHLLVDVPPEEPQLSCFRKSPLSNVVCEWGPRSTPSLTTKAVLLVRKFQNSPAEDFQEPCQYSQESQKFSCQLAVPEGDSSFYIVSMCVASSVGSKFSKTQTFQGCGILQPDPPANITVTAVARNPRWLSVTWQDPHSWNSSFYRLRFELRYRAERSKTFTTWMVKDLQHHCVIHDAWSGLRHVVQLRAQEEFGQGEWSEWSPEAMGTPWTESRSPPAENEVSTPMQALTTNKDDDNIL


What was measured:
[1] = target: T1, soluble recombinant human IL-6 receptor …; test: SPR Biacore T100; immobilised biotinylated SR344 as membrane-type IL-6 receptor; against TOCILIZUMAB
Protocol: (§1) The binding to membrane-type IL-6 receptor was assessed by evaluating the binding to soluble human IL-6 receptor immobilized onto the sensor chip. SR344 was biotinylated by a method known to those skilled in the art. Based on the affinity between biotin and streptavidin, biotinylated soluble human IL-6 receptor was immobilized onto the sensor chip via streptavidin. All measurements were conducted at 37° C. The mobile phase buffer was 10 mM MES (pH 5.8), 150 mM NaCl, and 0.05% Tween 20. […] The dissociation rate constant (kd (1/s)) at pH 5.8 was calculated using Biacore T100 Evaluation Software (GE Healthcare) by fitting only the dissociation phase at pH 5.8. The sample concentration was 0.25 pg/ml. Binding was carried out in 10 mM MES (pH 7.4), 150 mM NaCl, and 0.05% Tween 20, and dissociation was carried out in 10 mM MES (pH 5.8), 150 mM NaCl, and 0.05% Tween 20. Likewise, the dissociation rate constant (kd (1/s)) at pH 7.4 was calculated using Biacore T100 Evaluation Software (GE Healthcare) by fitting only the dissociation phase at pH 7.4. The sample concentration was 0.5 pg/ml. Binding was carried out in 10 mM MES (pH 7.4), 150 mM NaCl, and 0.05% Tween 20, and dissociation was carried out in 10 mM MES (pH 7.4), 150 mM NaCl, and 0.05% Tween 20.

[2] = target: T1, soluble recombinant human IL-6 receptor …; test: SPR Biacore T100, 37 C; biotinylated SR344 immobilised via streptavidin as membrane-type IL-6 receptor; ratio of dissociation rates
Protocol: as §1

Row | Binder | fold increase of pH dependence of the dissociation rate against TOCILIZUMAB [1] | kd(pH 5.8)/kd(pH 7.4) pH … [2] | fold improvement of pH dependency of the dissociation rate against TOCILIZUMAB [1]
1 | H3pI/L73 (antibody, human IgG1, kappa, V domains shown, also called H3pI-IgG1/L73-kappa) VH: QVQLQESGPGLVKPSETLSLTCAVSGHSISHDHAHSWVRQPPGEGLEWIGYISYSGITNYNPSLKGRVTISRDTSKNQFSLKLSSVTAADTAAYYCARSLARTTAMDYWGEGTLVTVSS VL: DIQMTQSPSSLSASVGDSVTITCQASQHISSHLNWYQQKPGKAPELLIYYGSHLHSGVPSRFSGSGSGTDFTFTISSLEAEDAATYYCGQGNRLPYTFGQGTKVEIER | ~2.6 times | – | –
2 | TOCILIZUMAB (antibody, human IgG1, kappa, Humanized anti-IL-6 receptor IgG1 antibody; H chain WT-IgG1, L chain WT-kappa; also called TOCILIZUMAB-IgG1; WT-IgG1/WT-kappa) heavy: not shown light: not shown | – | 1 | –
3 | Fv3-M73 (antibody, V domains shown, Fully humanized IL-6 receptor antibody; also called VH4-M73/VL1-kappa) VH: QVQLQESGPGLVKPSETLSLTCAVSGHSISHDHAWSWVRQPPGEGLEWIGFISYSGITNYNPTLQGRVTISRDNSKNTLYLQMNSLRAEDTAVYYCARSLARTTAMDYWGEGTLVTVSS VL: DIQMTQSPSSLSASVGDSVTITCQASRDISSHLNWYQQKPGKAPELLIYYGSHLLSGVPSRFSGSGSGTDFTFTISSLEAEDAATYYCGQGNRLPYTFGQGTKVEIER | – | 10.9 | ~11 times
4 | Fv4-M73 (antibody, V domains shown, Fully humanized IL-6 receptor antibody; also called VH3-M73/VL3-kappa) VH: QVQLQESGPGLVKPSETLSLTCAVSGHSISHDHAWSWVRQPPGEGLEWIGFISYSGITNYNPSLQGRVTISRDNSKNTLYLQMNSLRAEDTAVYYCARSLARTTAMDYWGEGTLVTVSS VL: DIQMTQSPSSLSASVGDSVTITCQASTDISSHLNWYQQKPGKAPELLIYYGSHLLSGVPSRFSGSGSGTDFTFTISSLEAEDAATYYCGQGNRLPYTFGQGTKVEIER | – | 10.1 | ~10 times
